Measurements reported in US20260191974A1 (UNIVERSITY OF NORTH CAROLINA AT CHAPEL HILL, published 2026).
Values belong to the binder of their own block, whether it stands above or below them. Bridges are numbered along the chain shown (N, C = ends). DBX = not defined here

Tests used:
[1] = target: T1, biotinylated B7-H3 (B7-H3b), immune checkpoint protein; assay: JP5 alanine mutant library in mRNA display: background screen on beads, then selection on biotinylated B7-H3; NGS, enrichment in the selection over the input library
T1 construct: also called biotin immobilized B7-H3; streptavidin immobilized B7-H3
T1 sequence (Q5ZPR3 whole entry, species assumed, looked up): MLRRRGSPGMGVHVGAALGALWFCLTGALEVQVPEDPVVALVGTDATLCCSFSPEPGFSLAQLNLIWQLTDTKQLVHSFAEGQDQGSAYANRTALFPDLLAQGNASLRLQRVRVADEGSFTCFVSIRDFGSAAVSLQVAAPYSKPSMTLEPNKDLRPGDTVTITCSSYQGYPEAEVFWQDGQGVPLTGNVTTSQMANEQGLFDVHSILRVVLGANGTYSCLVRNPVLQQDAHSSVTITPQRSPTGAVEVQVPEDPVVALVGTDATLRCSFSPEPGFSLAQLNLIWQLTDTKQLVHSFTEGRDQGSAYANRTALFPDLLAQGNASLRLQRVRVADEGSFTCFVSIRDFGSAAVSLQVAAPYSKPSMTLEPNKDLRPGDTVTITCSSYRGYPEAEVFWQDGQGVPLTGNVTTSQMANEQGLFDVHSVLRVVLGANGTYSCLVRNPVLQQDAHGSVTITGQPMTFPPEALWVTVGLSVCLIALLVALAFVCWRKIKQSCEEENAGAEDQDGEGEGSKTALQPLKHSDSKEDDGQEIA
From the text: FIGS. 17A-17B. JP5 alanine mutant library design and screen. (FIG. 17A) Each library member with the parent JP5 sequence on the top. JP5 was mutated at each residue to an Alanine. All library members, and JP5, were screened first against background components (magnetic beads) to remove nonspecific binders and then against biotinylated B7-H3 (see FIG. 14B). […] A value of >1 indicates stronger enrichment in the selection, whereas a value<1 indicates a stronger enrichment in the input library.
A single variant library of JP5 (FIG. 13A) and JP3 (FIG. 14A) was carried out. Each residue was mutated to include potentially 20/20 canonical amino acids. All library members were screened first against background components (magnetic beads) to remove nonspecific binders and then against biotinylated B7-H3 (FIG. 13B). […] The recovered material from the B7-H3 selection of JP5 and JP3 was sent for NGS (FIG. 15 and FIG. 16, respectively). In addition, JP5 was subjected to an alanine mutant scan (FIG. 17A). All library members were screened first against background components (magnetic beads) to remove nonspecific binders and then against biotinylated B7-H3 (see FIG. 13B). […] The selected AMs will be tested with surface plasmon resonance (SPR) to assess binding affinity.

[2] = target: T2, human B7-H3 (hB7-H3) (human, UniProt Q5ZPR3 29-461, limits assumed); assay: SPR
T2 construct: The construct is not described
T2 sequence (looked up): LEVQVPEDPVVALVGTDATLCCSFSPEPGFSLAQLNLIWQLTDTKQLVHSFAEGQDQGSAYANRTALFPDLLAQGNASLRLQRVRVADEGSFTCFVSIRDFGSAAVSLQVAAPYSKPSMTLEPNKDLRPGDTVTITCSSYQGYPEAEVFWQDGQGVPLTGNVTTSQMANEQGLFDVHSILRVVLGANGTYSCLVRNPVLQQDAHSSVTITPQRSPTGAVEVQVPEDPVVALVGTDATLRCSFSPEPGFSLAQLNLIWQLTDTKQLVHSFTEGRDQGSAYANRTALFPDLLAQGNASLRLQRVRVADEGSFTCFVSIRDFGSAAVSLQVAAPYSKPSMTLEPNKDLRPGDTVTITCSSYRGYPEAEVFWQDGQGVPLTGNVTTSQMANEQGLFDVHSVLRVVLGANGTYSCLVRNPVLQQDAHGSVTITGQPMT

[3] = target: T3, murine B7-H3 (mB7-H3) (murine, UniProt Q8VE98 29-244, limits assumed); assay: SPR
T3 construct: The construct is not described
T3 sequence (looked up): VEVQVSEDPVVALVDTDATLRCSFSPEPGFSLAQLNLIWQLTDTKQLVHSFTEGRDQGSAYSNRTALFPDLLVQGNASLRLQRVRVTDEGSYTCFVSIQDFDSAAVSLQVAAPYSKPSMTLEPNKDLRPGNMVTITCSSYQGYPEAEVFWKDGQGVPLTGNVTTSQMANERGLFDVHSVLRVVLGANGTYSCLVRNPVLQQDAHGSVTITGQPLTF

[4] = target: T2, human B7-H3 (hB7-H3); assay: SPR; hB7-H3 as ligand on the chip, peptide as analyte
[5] = target: T3, murine B7-H3 (mB7-H3); assay: SPR; mB7-H3 as ligand on the chip, peptide as analyte
[6] = target: T2, human B7-H3 (hB7-H3); assay: SPR; reduced (no disulfide bridge)
[7] = target: T2, human B7-H3 (hB7-H3); assay: SPR; oxidized (with disulfide bridge)
[8] = target: T1, biotinylated B7-H3 (B7-H3b), immune …; assay: SPR, Biacore 8K single-cycle kinetics, biotinylated B7-H3 on NeutrAvidin chip, peptide as analyte
Protocol: Surface Plasmon Resonance (SPR) analysis. Binding kinetics between our selected peptide (and variants) and biotinylated B7-H3 (B7-H3b) were assessed through SPR analysis using a BIACORE 8K SPR system (GE Healthcare). The running buffer was 1×PBS pH7.5, 0.05% TWEEN® 20 and all analysis was carried out at 25° C. B7-H3b was loaded onto a NeutrAvidin SPR Chip (Series S Sensor Chip NA, 29407997, Cytiva) at a flow rate of […] to a surface density of 1000-1500 response units. Analyte was then injected over a series of five concentrations and quantified by BIACORE single-cycle kinetics method. For our selected peptide (B1.1) and the Met9Nle variant a range of 7.5, 15, 30, 60, 120 nM were run. For the linear variant concentrations of 50, 100, 200, 400, 800 nM were run. Binding sonograms were generated using a standard 1:1 binding kinetics model and kinetics constants determined using standard BIACORE evaluation software.

[9] = target: T1, biotinylated B7-H3 (B7-H3b), immune …; assay: SPR (BIACORE 8K, single-cycle kinetics, 1:1 fit); biotinylated B7-H3 on a NeutrAvidin chip, peptide as analyte at 7.5-120 nM
From the text: FIGS. 4A-4G. (FIG. 4A) Selection schematic detailing the selection process for identifying binders against B7-H3. (FIG. 4B) qPCR results of the mTG mediated B7-H3 selection. (FIG. 4C) B7-H3 selection results and complete NGS analysis of B7-H3 hits. (FIG. 4D) NGS data of the selection hits. […] Arrow indicates the peptide pursued for binding validation. (FIG. 4E) EIC ([M+2], 948.91 m/z) traces corresponding to the product of the mTG reaction with linear B1.1 peptide and the synthetic lactam, disulfide peptide. (FIG. 4F) Surface Plasmon Resonance (SPR) analysis of the selected peptide (B1.1), the Met9Nle variant, and the linear variant. […] The selected B1.1 and the Met9Nle variant were analyzed at analyte concentrations of 7.5, 15, 30, 60, 120 nM. The linear variant was analyzed at analyte concentrations of 50, 100, 200, 400, 800 nM. […] (FIG. 4G) Individual SPR curves. Fitted curve and raw data are shown.
Surface Plasmon Resonance (SPR) analysis. Binding kinetics between our selected peptide (and variants) and biotinylated B7-H3 (B7-H3b) were assessed through SPR analysis using a BIACORE 8K SPR system (GE Healthcare). […] Analyte was then injected over a series of five concentrations and quantified by BIACORE single-cycle kinetics method. […] Binding sonograms were generated using a standard 1:1 binding kinetics model and kinetics constants determined using standard BIACORE evaluation software.

SELECTION/INPUT [1]: 1.34
B1: AM10 (peptide)
peptide: Ac-CWTIRDINGTAC-NH2
modifications: bridge 1-12; also: bracket C1-C12, bond type not given here
notes: Member of the JP5 alanine mutant library; also called JP5 alanine mutant 10

SELECTION/INPUT [1]: 0.309
B2: AM3 (peptide)
peptide: Ac-CWTARDINGTRC-NH2
modifications: bridge 1-12; also: bracket C1-C12, bond type not given here
notes: Member of the JP5 alanine mutant library; also called JP5 alanine mutant 3

SELECTION/INPUT [1]: 0.338
B3: AM8 (peptide)
peptide: Ac-CWTIRDINATRC-NH2
modifications: bridge 1-12; also: bracket C1-C12, bond type not given here
notes: Member of the JP5 alanine mutant library; also called JP5 alanine mutant 8

SELECTION/INPUT [1]: 1.53
B4: AM7 (peptide)
peptide: Ac-CWTIRDIAGTRC-NH2
modifications: bridge 1-12; also: bracket C1-C12, bond type not given here
notes: Member of the JP5 alanine mutant library; also called JP5 alanine mutant 7

SELECTION/INPUT [1]: 0.422
B5: AM9 (peptide)
peptide: Ac-CWTIRDINGARC-NH2
modifications: bridge 1-12; also: bracket C1-C12, bond type not given here
notes: Member of the JP5 alanine mutant library; also called JP5 alanine mutant 9

Kd [2]: 772 nM
Kd [3]: 591 nM
koff [4]: 0.0966 s⁻¹
kon [4]: 125000 M⁻¹ s⁻¹
koff [5]: 0.0605 s⁻¹
kon [5]: 102000 M⁻¹ s⁻¹
Binder: Ac-CWTIRDINGTRCG-NH2 (linker 1-12 via DBX; reading uncertain, also called JP5 variant) [JP5, thioether (dibromoxylene) linked macrocyclic peptide from the DBX-mediated B7-H3 selection]

SELECTION/INPUT [1]: 0.411
B6: AM5 (peptide)
peptide: Ac-CWTIRAINGTRC-NH2
modifications: bridge 1-12; also: bracket C1-C12, bond type not given here
notes: Member of the JP5 alanine mutant library; also called JP5 alanine mutant 5

SELECTION/INPUT [1]: 0.58
B7: AM4 (peptide)
peptide: Ac-CWTIADINGTRC-NH2
modifications: bridge 1-12; also: bracket C1-C12, bond type not given here
notes: Member of the JP5 alanine mutant library; also called JP5 alanine mutant 4

SELECTION/INPUT [1]: 1.99
B8: AM6 (peptide)
peptide: Ac-CWTIRDANGTRC-NH2
modifications: bridge 1-12; also: bracket C1-C12, bond type not given here
notes: Member of the JP5 alanine mutant library; also called JP5 alanine mutant 6

SELECTION/INPUT [1]: 0.33
B9: AM1 (peptide)
peptide: Ac-CATIRDINGTRC-NH2
modifications: bridge 1-12; also: bracket C1-C12, bond type not given here
notes: Member of the JP5 alanine mutant library; also called JP5 alanine mutant 1

Kd [6]: 198 nM
koff [4]: 14.7 s⁻¹
kon [4]: 7.44e+07 M⁻¹ s⁻¹
B10: reduced B1.1 (no disulfide bridge) (peptide)
peptide: WALQLCHSMFYTCKSG
modifications: no disulfide bridge (reduced cysteines C6 and C13); lactam bridge Q4-K14 and N-terminal acetylation as in B1.1
notes: also called reduced form of B1.1

Kd [7]: 105 nM
koff [4]: 0.0267 s⁻¹
kon [4]: 253000 M⁻¹ s⁻¹
Kd [5]: 161 nM
koff [5]: 0.0176 s⁻¹
kon [5]: 109000 M⁻¹ s⁻¹
Kd [8]: 43.5 nM
koff [9]: 0.00674 s⁻¹
kon [9]: 155000 M⁻¹ s⁻¹
B11: B1.1, selected cyclic, disulfide peptide (bicyclic: lactam and disulfide), synthetic, without the N-terminal methionine (peptide)
peptide: WALQLCHSMFYTCKSG
modifications: N-terminal acetylation (ac); lactam (isopeptide) bridge Q4-K14; disulfide bond C6-C13
notes: Made by solid phase synthesis on Rink Amide resin; also called Selected B1.1; oxidized B1.1 (with disulfide bridge)

SELECTION/INPUT [1]: 1.4
B12: AM2 (peptide)
peptide: Ac-CWAIRDINGTRC-NH2
modifications: bridge 1-12; also: bracket C1-C12, bond type not given here
notes: Member of the JP5 alanine mutant library; also called JP5 alanine mutant 2
